Laboratory results as given in PMC8248410 (Chemmedchem, 2021).
The star is where a group is joined. Biotin = O=C1N[C@H]2[C@H](CS[C@H]2CCCCC(=O)*)N1; Ahx = NCCCCCC(=O)O

Molecular target: gp120_(HxBc2) (HIV-1 (HxBc2), UniProt P04578 33-511)
Test: cell-based or functional assay

| Binder | IC50 of inhibition of HIV-1 NL4-3 infection of CEMx174 SEAP reporter cells |
| --- | --- |
| Ac-LCDCPNGPWVWVPAFCQAVG-OH (cysteine pairing not given here) [P6‐2] | 2630 nM |
| {Biotin-Ahx}-LCDCPNGPWVWVPAFCQAVG-OH (cysteine pairing not given here) [P6‐2(Bio)] | 1240 nM |
